Molecular target: T1, HLA-A*02:01 class I complex (conditional p*HLA*02:01, biotinylated heavy chain with beta2-microglobulin) (human, biotinylated heavy chain)
T1 construct: UV-labile peptide p* is cleaved and exchanged for the test peptide; also called HLA 2.1
Test: UV peptide exchange, HLA class I ELISA, % of Pos peptide;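 note: Streptavidin-captured HLA complexes after exchange detected via HRP anti-human B2M antibody, absorbance read, colour scales with intact complex, normalized to exchange control peptide as 100%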
Source text: The HLA class I ELISA is an enzyme immunoassay based on the detection of beta2-microglobulin (B2M) of (peptide-stabilized) HLA class I complexes. To this end streptavidin is bound onto polystyrene microtiter wells. After washing and blocking, HLA complex present in exchange reaction mixtures or ELISA controls is captured by the streptavidin on the microtiter plate via its biotinylated heavy chain. Non-bound material is removed by washing. Subsequently, horseradish peroxidase (HRP)-conjugated antibody to human B2M is added. […] In the latter case B2M is removed during the washing step. After removal of non-bound HRP conjugate by washing, a substrate solution is added to the wells. A colored product is formed in proportion to the amount of intact HLA complex present in the samples. After the reaction has been terminated by the addition of a stop solution, absorbance is measured in a microtiter plate reader. The absorbance is normalized to the absorbance of an exchange control peptide (represents 100%). Also, suboptimal HLA binding of peptides with a moderate to low affinity for HLA class I molecules can be detected by this ELISA technique
Coating wells of two NUNC MaxiSorp™ 96-well ELISA plates: only the contents of one coating buffer capsule were dissolved in 100 mL of distilled water (0.05 M carbonate-bicarbonate buffer, pH 9.6 at 25° C.). 46 μL of Streptavidin stock solution were added to 23 mL coating buffer. 100 μL of the Streptavidin stock solution were added to all wells. Each microtiter plate was covered with an adhesive seal and incubated overnight at room temperature (18-25° C.).

Binder	Average % [%]	Exch I (%)	Exch II (%)
SLTCTYFPV (also called M212) [TP53_S127F6 mimic peptide SLTCTYFPV]	95.5	93.7	97.2
SLTCTYFPL (also called M214) [TP53_S127F8 mimic peptide SLTCTYFPL]	70.8	69.9	71.6

— patent US20220194999A1 (Janssen / Centocor, published 2022)
